From patent US20230212587A1, “Mutant Hydroxyphenylpyruvate Dioxygenase Polypeptide, Encoding Gene Thereof and Use Therefor” (Beijing Dabeinong Biotechnology Co., Ltd., priority 2019, published 2023) come the findings set out here.

For the assay, the system named is Arabidopsis thaliana T1 plants. Briefly: Topramezone tolerance of transgenic Arabidopsis thaliana T1 plants (pesticide damage grade by bleached leaf area, score, resistance evaluation). Particulars: HPPDs from different species, 7 DAT; for Classification and statistics of pesticide damage grade Grade 0 / Classification and statistics of pesticide damage grade Grade 1 / Classification and statistics of pesticide damage grade Grade 2 / Classification and statistics of pesticide damage grade Grade 3: number of plants (of 16) in this grade; for Scores: score for pesticide damage 0-100. The assay is classed as in vivo. The method, boiled down: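 Eighteen days after sowing, wild-type and HPPD-transgenic T1 Arabidopsis receive a topramezone spray at 1×, 2× or 4× field rate (25–100 g ai/ha) or water. Seven days later each plant is graded by its proportion of bleached leaf area.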

B1: OsHPPD-02: native Oryza sativa HPPD, SEQ ID NO: 69 (protein, listed as Oryza sativa)
chain: MPPTPTPTATTGAVSAAAAAGENAGFRLVGHRRFVRANPRSDRFQALAFHHVELWCADAASAAGRFAFALGAPLAARSDLSTGNSAHASLLLRSASVAFLFTAPYGGDHGVGADAATTASIPSFSPGAARRFAADHGLAVHAVALRVADAADAFRASVAAGARPAFQPADLGGGFGLAEVELYGDVVLRFVSHPDGADAPFLPGFEGVSNPGAVDYGLRRFDHVVGNVPELAPVAAYISGFTGFHEFAEFTAEDVGTAESGLNSVVLANNAETVLLPLNEPVHGTKRRSQIQTYLDHHGGPGVQHIALASDDVLGTLREMRARSAMGGFEFLAPPPPNYYDGVRRRAGDVLSEEQINECQELGVLVDRDDQGVLLQIFTKPVGDRPTFFLEMIQRIGCMEKDESGQEYQKGGCGGFGKGNFSELFKSIEEYEKSLEAKQAPTVQGS
modifications: OsHPPD Amino Acid Sequence
As for B1, where the note is “topramezone 25 g ai/ha (1x)”, the “Classification and statistics of pesticide damage grade Grade 0” value stood at 0; the “Classification and statistics of pesticide damage grade Grade 1” value worked out at 0; the “Classification and statistics of pesticide damage grade Grade 2” value stood at 0; the “Classification and statistics of pesticide damage grade Grade 3” value came out at 16. Further, for the setting “topramezone 25 g ai/ha (1x)”, the Scores was determined as 100 and the Resistance evaluation result is recorded as “non-resistant (non-resistant plants (scores 68-100))”. Moreover, under “topramezone 100 g ai/ha (4x)”, the “Classification and statistics of pesticide damage grade Grade 0” value worked out at 0; the “Classification and statistics of pesticide damage grade Grade 1” value amounted to 0; the “Classification and statistics of pesticide damage grade Grade 2” value came to 0; the “Classification and statistics of pesticide damage grade Grade 3” value is 16. In addition, under “topramezone 100 g ai/ha (4x)”, the Scores was 100 and the Resistance evaluation entry is listed as “non-resistant (non-resistant plants (scores 68-100))”.

B2: OsHPPDm-F372A-02: Oryza sativa HPPD mutant F372A, SEQ ID NO: 72 (protein)
chain: MPPTPTPTATTGAVSAAAAAGENAGFRLVGHRRFVRANPRSDRFQALAFHHVELWCADAASAAGRFAFALGAPLAARSDLSTGNSAHASLLLRSASVAFLFTAPYGGDHGVGADAATTASIPSFSPGAARRFAADHGLAVHAVALRVADAADAFRASVAAGARPAFQPADLGGGFGLAEVELYGDVVLRFVSHPDGADAPFLPGFEGVSNPGAVDYGLRRFDHVVGNVPELAPVAAYISGFTGFHEFAEFTAEDVGTAESGLNSVVLANNAETVLLPLNEPVHGTKRRSQIQTYLDHHGGPGVQHIALASDDVLGTLREMRARSAMGGFEFLAPPPPNYYDGVRRRAGDVLSEEQINECQELGVLVDRDDQGVLLQIATKPVGDRPTFFLEMIQRIGCMEKDESGQEYQKGGCGGFGKGNFSELFKSIEEYEKSLEAKQAPTVQGS
modifications: OsHPPDm-F372A Amino Acid Sequence
As to B2, where the note is “topramezone 25 g ai/ha (1x)”, the “Classification and statistics of pesticide damage grade Grade 0” value came to 8; the “Classification and statistics of pesticide damage grade Grade 1” value came out at 8; the “Classification and statistics of pesticide damage grade Grade 2” value is recorded as 0; the “Classification and statistics of pesticide damage grade Grade 3” value is given as 0. Also, under “topramezone 25 g ai/ha (1x)”, the Scores worked out at 17 and the Resistance evaluation result is recorded as “moderately resistant (moderately resistant plants (scores 16-33))”. For the setting “topramezone 100 g ai/ha (4x)”, the “Classification and statistics of pesticide damage grade Grade 0” value worked out at 0; the “Classification and statistics of pesticide damage grade Grade 1” value was 0; the “Classification and statistics of pesticide damage grade Grade 2” value is 0; the “Classification and statistics of pesticide damage grade Grade 3” value amounted to 16. Also, where the note is “topramezone 100 g ai/ha (4x)”, the Scores turned out to be 100 and the Resistance evaluation result was “non-resistant (non-resistant plants (scores 68-100))”.

B3: SbHPPDm-F372A-02: Sorghum bicolor HPPD mutant F372A, SEQ ID NO: 66 (protein)
chain: MPPTPTTAAATGAAVAAASAEQAAFRLVGHRNFVRVNPRSDRFHTLAFHHVELWCADAASAAGRFSFGLGAPLAARSDLSTGNTAHASLLLRSGALAFLFTAPYAHGADAATASLPSFSAAEARRFAADHGLAVRAVALRVADAEDAFRASVAAGARPAFEPVELGLGFRLAEVELYGDVVLRYVSYPDDADASFLPGFVGVTSPGAADYGLRRFDHIVGNVPELAPAAAYFAGFTGFHEFAEFTAEDVGTTESGLNSMVLANNAENVLLPLNEPVHGTKRRSQIQTYLDHHGGPGVQHMALASDDVLRTLREMQARSAMGGFEFMAPPAPEYYDGVRRRAGDVLTEAQIKECQELGVLVDRDDQGVLLQIATKPVGDRPTLFLEIIQRIGCMEKDEKGQEYQKGGCGGFGKGNFSQLFKSIEDYEKSLEAKQAAAAQGS
modifications: SbHPPDm-F372A Amino Acid Sequence
As to B3, for the setting “topramezone 25 g ai/ha (1x)”, the “Classification and statistics of pesticide damage grade Grade 0” value was found to be 16; the “Classification and statistics of pesticide damage grade Grade 1” value turned out to be 0; the “Classification and statistics of pesticide damage grade Grade 2” value is 0; the “Classification and statistics of pesticide damage grade Grade 3” value stood at 0. Also, under “topramezone 25 g ai/ha (1x)”, the Scores was 0 and the Resistance evaluation entry is “highly resistant_ (highly resistant plants (scores 0-15))”. For the setting “topramezone 100 g ai/ha (4x)”, the “Classification and statistics of pesticide damage grade Grade 0” value was 4; the “Classification and statistics of pesticide damage grade Grade 1” value was determined as 4; the “Classification and statistics of pesticide damage grade Grade 2” value came out at 8; the “Classification and statistics of pesticide damage grade Grade 3” value is recorded as 0. Moreover, under “topramezone 100 g ai/ha (4x)”, the Scores was 42 and the Resistance evaluation result was “poorly resistant (poorly resistant plants (scores 34-67))”.

B4: AtHPPD: native Arabidopsis thaliana HPPD, SEQ ID NO: 23 (protein, listed as Arabidopsis thaliana)
chain: MGHQNAAVSENQNHDDGAASSPGFKLVGFSKFVRKNPKSDKFKVKRFHHIEFWCGDATNVARRFSWGLGMRFSAKSDLSTGNMVHASYLLTSGDLRFLFTAPYSPSLSAGEIKPTTTASIPSFDHGSCRSFFSSHGLGVRAVAIEVEDAESAFSISVANGAIPSSPPIVLNEAVTIAEVKLYGDVVLRYVSYKAEDTEKSEFLPGFERVEDASSFPLDYGIRRLDHAVGNVPELGPALTYVAGFTGFHQFAEFTADDVGTAESGLNSAVLASNDEMVLLPINEPVHGTKRKSQIQTYLEHNEGAGLQHLALMSEDIFRTLREMRKRSSIGGFDFMPSPPPTYYQNLKKRVGDVLSDDQIKECEELGILVDRDDQGTLLQIFTKPLGDRPTIFIEIIQRVGCMMKDEEGKAYQSGGCGGFGKGNFSELFKSIEEYEKTLEAKQLVG
modifications: Arabidopsis thaliana HPPD Amido Acid Sequence
Regarding B4, for the setting “topramezone 25 g ai/ha (1x)”, the “Classification and statistics of pesticide damage grade Grade 0” value is listed as 0; the “Classification and statistics of pesticide damage grade Grade 1” value is on record as 0; the “Classification and statistics of pesticide damage grade Grade 2” value turned out to be 0; the “Classification and statistics of pesticide damage grade Grade 3” value is recorded as 16. Also, where the note is “topramezone 25 g ai/ha (1x)”, the Scores worked out at 100 and the Resistance evaluation result is given as “non-resistant (non-resistant plants (scores 68-100))”. Besides, under “topramezone 100 g ai/ha (4x)”, the “Classification and statistics of pesticide damage grade Grade 0” value amounted to 0; the “Classification and statistics of pesticide damage grade Grade 1” value is 0; the “Classification and statistics of pesticide damage grade Grade 2” value amounted to 0; the “Classification and statistics of pesticide damage grade Grade 3” value is 16. For the same molecule, under “topramezone 100 g ai/ha (4x)”, the Scores stood at 100 and the Resistance evaluation result was “non-resistant (non-resistant plants (scores 68-100))”.

B5: AtHPPDm-F372A: Arabidopsis thaliana HPPD mutant F372A, SEQ ID NO: 25 (protein)
chain: MGHQNAAVSENQNHDDGAASSPGFKLVGFSKFVRKNPKSDKFKVKRFHHIEFWCGDATNVARRFSWGLGMRFSAKSDLSTGNMVHASYLLTSGDLRFLFTAPYSPSLSAGEIKPTTTASIPSFDHGSCRSFFSSHGLGVRAVAIEVEDAESAFSISVANGAIPSSPPIVLNEAVTIAEVKLYGDVVLRYVSYKAEDTEKSEFLPGFERVEDASSFPLDYGIRRLDHAVGNVPELGPALTYVAGFTGFHQFAEFTADDVGTAESGLNSAVLASNDEMVLLPINEPVHGTKRKSQIQTYLEHNEGAGLQHLALMSEDIFRTLREMRKRSSIGGFDFMPSPPPTYYQNLKKRVGDVLSDDQIKECEELGILVDRDDQGTLLQIATKPLGDRPTIFIEIIQRVGCMMKDEEGKAYQSGGCGGFGKGNFSELFKSIEEYEKTLEAKQLVG
modifications: AtHPPDm-F372A Amino Acid Sequence
B5: for the setting “topramezone 25 g ai/ha (1x)”, the “Classification and statistics of pesticide damage grade Grade 0” value was determined as 4; the “Classification and statistics of pesticide damage grade Grade 1” value is listed as 4; the “Classification and statistics of pesticide damage grade Grade 2” value is recorded as 8; the “Classification and statistics of pesticide damage grade Grade 3” value was determined as 0. Further, where the note is “topramezone 25 g ai/ha (1x)”, the Scores is 42 and the Resistance evaluation entry was “poorly resistant (poorly resistant plants (scores 34-67))”. Moreover, where the note is “topramezone 100 g ai/ha (4x)”, the “Classification and statistics of pesticide damage grade Grade 0” value was 0; the “Classification and statistics of pesticide damage grade Grade 1” value worked out at 0; the “Classification and statistics of pesticide damage grade Grade 2” value is on record as 4; the “Classification and statistics of pesticide damage grade Grade 3” value was 12. Besides, where the note is “topramezone 100 g ai/ha (4x)”, the Scores was found to be 92 and the Resistance evaluation result is “non-resistant (non-resistant plants (scores 68-100))”.
